Test results: the supplement of paper PMC9170038

Test system: MS2 coat protein
Experiment: apparent KD of MS2 coat protein; designed switch direction (-1 OFF switch, 1 ON switch): -1; higher = weaker reporter binding
Procedure, shortened: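 Each step of the titration lasted 0.8–1.5 h at the lowest concentration and 10–20 min at the highest. The protein, SNAP-549-labelled MS2 coat protein, went from 0.7 or 1.5 nM doubling to 3 µM over RNA switches transcribed on Illumina chips by stalled E. coli RNA polymerase. Normalised cluster fluorescence was curve-fitted, and the per-design median over clusters is given as apparent KD.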

[1] = input ligand: microRNA oligo, concentration not stated

| Sequence | apparent KD of MS2 coat protein [1] [nM] | apparent KD of MS2 coat protein (input ligand: FMN 200 uM) [nM] | apparent KD of MS2 coat protein (input ligand: none) [nM] |
| --- | --- | --- | --- |
| GUGUUGUAUGUAGGAUAUGCAUACUGUUAGUAUGCAGAAGGACAUGAGGAUCACCCAUGUAUAUUAUUAUUAUAUAUCAUACAU [MOD of Hoglahoo's Title] (Eterna round: R96, puzzle: Exclusion NG 1) | 15.2 |  |  |
| GUUAACGUAGGAUAUUAGUACAUGCACAUGAGGAUCACCCAUGUUUAGUGGGUCUAGGAAUAAGAAGGGCGAAGAA [EX5 #23] (Eterna round: R97, puzzle: Exclusion 5) |  | 170 | 309 |
| GUUAUGUAAGGAUAUAUGAGUCACGGUGAUACACCGUGAAGAUAGAAGGUACAUGAGGAUCACCCAUGUAAGGC [Mod of Anonveat 10 - Jieux - Exclusion 4] (Eterna round: R97, puzzle: Exclusion 4) |  | 32.2 | 25.4 |
| GUUAUGUCAGGAUAUGCUAAUGAUGAAUGAUCAGACAUAAUGUAGAAGGGACAUGAGGAUCACCCAUGUAAUAU [EX4 #6] (Eterna round: R97, puzzle: Exclusion 4) |  | 29.4 | 23.3 |
| GUUAUGUCAGGAUAUGCUAAUGAUGAAUGAUCAGACAUGAUGUAGAAGGGACAUGAGGAUCACCCAUGUAAUAU [EX4 #7] (Eterna round: R97, puzzle: Exclusion 4) |  | 32.3 | 25 |
| GUUAUUUAUGUAGGAUAUGCAAGGCGAACCUAAGCAGAAGGACAUGAGGAUCACCCAUGUAUUGCGGUCUGCGUUCAGAUCGCU [salish99_ExNG1_r4_013] (Eterna round: R96, puzzle: Exclusion NG 1) | 15 | 86.2 | 22 |
| GUUCAGUCAGGAUAUCAAUCCGCCUGUGAUACGCAGGCGGCUGAGAAGGGACAUGAGGAUCACCCAUGUAAAGA [jl-ex4-4.21 ViennaUCT mod] (Eterna round: R97, puzzle: Exclusion 4) |  | 51.1 | 37.1 |
| GUUCCGCGAGGAUAUACAGACGGGUCCAAAACGUGUCUCGGACUUGAGGAUCACCCAAGUAGAAGGCGUUUCAG [salish99_ex2_r4_622] (Eterna round: R97, puzzle: Exclusion 2) |  | 20.4 | 22.1 |
| GUUCGUGAGAAGGAUAUGAUUCUGGAACAAGAGUUAGAAGGUUUCACAUGAGGAUCACCCAUGUCUAGAAAACC [Eternabot (Original) Solution 32] (Eterna round: R97, puzzle: Exclusion 6) |  | 12.2 | 10.7 |
| GUUGACUGAUGAGGAUAUUCAUAAGAAUGGGCCUUGGUUUUACAUGAGGAUCACCCAUGUUGACAGAAGAAGGCAUCAGUCUGA [Eternabot solution 28] (Eterna round: R96, puzzle: Exclusion NG 2) | 120 | 659 | 109 |
| GUUGUUUAUGUAGGAUAUGCCUGGCGUGCCUUUGCAGAAGGACAUGAGGAUCACCCAUGUAUUGCGGUCUGCGUUCAGAUCGCU [salish99_ExNG1_r4_022] (Eterna round: R96, puzzle: Exclusion NG 1) | 26.2 | 45.6 | 34.8 |
| GUUUAGUGAGGAUAUGUGGCUUCGAUCGUGCGAAGGAGGCUACAGAAGGCACAUGAGGAUCACCCAUGUUCCUC [salish99_ex4_r4_302] (Eterna round: R97, puzzle: Exclusion 4) |  | 401 | 37.1 |
| GUUUCACAUGAGGAUCACCCAUGUGAGGAUAUAAAUUUGUUAACCGUAGUUAAUAGAUUUAGAAGGCGCGUGAU [JR_Exc1_Sub001] (Eterna round: R97, puzzle: Exclusion 1) |  | 68.2 | 63.1 |
| GUUUGCACGCUGCGGUCCUACAUGAGGAUCACCCAUGUGGUCUGGUGGCGUGGGUCGCCGGACUUGGCUCGUCUUGA [salish99_S_TOV1_R5_038] (Eterna round: R97, puzzle: Sensor, turn-off variant 1) |  | 17.2 | 16.9 |
